Results as given in patent US7015022B2, “Mammalian catalase-dependent oxidation processes and methods for stimulating oxidative activities” (University of Medicine & Dentistry of New Jersey, priority 2002, dated 2006).

Substrate: CC(=O)N1c2ccc(O)cc2Oc2cc(O)ccc21
Test: Catalase-dependent oxidation of AMPLEX-RED to resorufin in the absence of hydrogen peroxide (Lineweaver-Burke enzyme kinetics)
Type: biochemical, bovine
Conditions: other: Lineweaver-Burke analysis, catalase 1 mg/ml, 50 mM phosphate buffer pH 7.4, room temperature, no hydrogen peroxide
Method: Reactions were carried out in buffer consisting of 50 mM phosphate buffer, pH 7.4 and 1.0 mg/ml of the catalase at room temperature (22° C.) in a reaction volume of 0.1 ml. […] Standard reaction mixtures contain 20 nmoles of the substrate. Detection of the fluorescent product resorufin was measured using an HTS 7000 Plus Bio Assay Reader (Perkin Elmer, Beaconsfield, Buckinghamsire, UK) using a 540 nm excitation filter and a 595 nm emission filter.

B1: mammalian catalase (Bos taurus) (protein)
chain: ADNRDPASDQMKHWKEQRAAQKPDVLTTGGGNPVGDKLNSLTVGPRGPLLVQDVVFTDEMAHFDRERIPERVVHAKGAGAFGYFEVTHDITRYSKAKVFEHIGKRTPIAVRFSTVAGESGSADTVRDPRGFAVKFYTEDGNWDLVGNNTPIFFIRDALLFPSFIHSQKRNPQTHLKDPDMVWDFWSLRPESLHQVSFLFSDRGIPDGHRHMNGYGSHTFKLVNANGEAVYCKFHYKTDQGIKNLSVEDAARLAHEDPDYGLRDLFNAIATGNYPSWTLYIQVMTFSEAEIFPFNPFDLTKVWPHGDYPLIPVGKLVLNRNPVNYFAEVEQLAFDPSNMPPGIEPSPDKMLQGRLFAYPDTHRHRLGPNYLQIPVNCPYRARVANYQRDGPMCMMDNQGGAPNYYPNSFSAPEHQPSALEHRTHFSGDVQRFNSANDDNVTQVRTFYLKVLNEEQRKRLCENIAGHLKDAQLFIQKKAVKNFSDVHPEYGSRIQALLDKYNEEKPKNAVHTYVQHGSHLSAREKANL
notes: purified catalases obtained from a variety of sources including enzyme from mouse and bovine liver; purchased Sigma Chemical Co., St. Louis, Mo; host or cells: liver tissue (mouse and bovine named)
B1 gave a Km of 244 µM and a Vmax of 4.74e-05 M/s.
